From patent publication US20260248897

Tests used:
[1] = test system: RBD of SARS-CoV-2 Omicron strain B.1.1.529, BA1, on infectious virus
[2] = test system: RBD of SARS-CoV-2 Omicron strain
[3] = test system: RBD of SARS-CoV-2 Delta strain
[4] = test system: RBD of SARS-CoV-2 Delta strain B.1.617.2, on infectious virus

## gene recombinant of human PDI (protein disulfide isomerase)
[1]
  antiviral activity (viral genome amount in supernatant of infected airway organoids): PDI showed the high antiviral activity against both the Delta strain and the Omicron strain.
[2]
  disulfide bond cleavage activity (remaining rate of native RBD; maleimide-PEG 2k, SDS-PAGE): PDI showed an activity to cleave disulfide bonds in both the RBD of the Delta strain and the RBD of the Omicron strain. The disulfide bond cleavage activity was particularly high in the RBD of the Omicron strain.
[3]
  disulfide bond cleavage activity (remaining rate of native RBD; maleimide-PEG 2k, SDS-PAGE): PDI showed an activity to cleave disulfide bonds in both the RBD of the Delta strain and the RBD of the Omicron strain.
[4]
  antiviral activity (viral genome amount in supernatant of infected airway organoids): PDI showed the high antiviral activity against both the Delta strain and the Omicron strain.
